Measurements as given in the supplement of paper PMC10567573.
± gives the standard deviation.

Assay: protein stability index of a GFP-peptide fusion (GPS, HEK-293T) (PSI 1-6); higher = more stable
[1] = treatment: DMSO, c terminus: a fixed tail appended
[2] = treatment: MLN4924 1 uM, 8 h, c terminus: a fixed tail appended
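Further: 24-mer peptide tiles fused after GFP, lentivirally expressed, FACS-sorted into six equal bins by GFP/DsRed ratio, decoded by Illumina sequencing, PSI is the read-weighted mean bin number.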

Sequence	protein stability index [1]	protein stability index [2]	protein stability index (treatment: DMSO, c terminus: native)	protein stability index (treatment: MLN4924 1 uM, 8 h, c terminus: native)
LLYSEVTASSLVKINLQGDIVDRG [ADD1]	2.85 ± 0.52	2.42 ± 0.42		
GDHRSPASAQKFSSRSTVPTPAKR [NET1]	4.75 ± 0.38	5.05 ± 0.23		
YRWHINFTTFFIDCMAALGLAYDR [SCD]	2.99 ± 0.65	2.61 ± 0.64		
GGRDFSAPLTISRVHAGSKAALAA [PDLIM4]	3.59 ± 0.24	3.85 ± 0.27		
SQDFVGEKLGSGEPSHSVKVHTVP [ATE1]	4.78 ± 0.17	4.83 ± 0.26		
AKPGSTEKGLPLRKTHVLLGRSHD [MFSD9]	3.79 ± 0.23	3.86 ± 0.17		
GTEEKKKLIRDFDEKQQEANETLA [VTI1B]	5.57 ± 0.22	5.51 ± 0.15		
LLECYIQYHHSKIRNRGYNLIYRS [TMEM192]	2.71 ± 0.5	2.73 ± 0.6		
TLARMSRRTRGPVERAAAAAAAAA [C6orf223]	3.02 ± 0.56	3.43 ± 0.91		
VMEIQKQIEKKEKKLHKIQNKAQR [TAF7L]	4.13 ± 0.088	4.36 ± 0.21		
AGGELGISLNMCLLGALVLLGLGV [PBXIP1]	2.72 ± 1	2.7 ± 0.87		
QPPEFRNESSLASTLKTLLFFTAL [VMA21]	2.42 ± 0.32	2.39 ± 0.11		
LPEWISCLIQKAQWTVGKLNCPFC [RNF180]	2.22 ± 0.19	2.31 ± 0.087		
SMSGGRFRCPTCRHEVIMDRHGVY [TRIM63]	2.24 ± 0.11	2.39 ± 0.35		
KAQIWDTAGQERYRAITSAYYRGA [RAB11A]	2.88 ± 0.16	2.98 ± 0.31		
ANRWSFEGMDRWIKKIEEHAPGVP [RAB40A]	3.33 ± 0.26	3.4 ± 0.33		
LVENDQQLQKILSIPQSSLEPLKA [ACSBG2]	3.66 ± 0.34	3.99 ± 0.41		
FHYVDILALLPAAWEDSHGSQDGH [SCNN1D]	2.26 ± 0.56	2.13 ± 0.25		
VVEKRLCMYEHGEDTHQSPEPEDE [RSPH3]	5.43 ± 0.43	5.58 ± 0.23		
PQGDEEDIASRYPTLWTEQVKSRQ [SMOC2]	4.55 ± 0.17	4.52 ± 0.091		
TTADLDRKLSFSHSDHSSEMSLPE [SPATS1]	5.08 ± 0.19	4.82 ± 0.27		
EDSKELRALRKMVSNMSGPSGEEE [CBY2]	5.15 ± 0.21	5.25 ± 0.13		
RPSMASELMPSSRLWSLSYTKLPS [SLC25A39]	2.99 ± 0.19	2.92 ± 0.26		

Sequence	protein stability index [1]	protein stability index [2]	protein stability index (treatment: DMSO, c terminus: native)	protein stability index (treatment: MLN4924 1 uM, 8 h, c terminus: native)
QDPLKFYKKIYFCHSCQLYLPSTE [IQUB]	1.94 ± 0.41	2.12 ± 0.66		
GYSGTSDRIRFTVNRRISIVGFGL [BTBD1]	2.83 ± 0.27	2.87 ± 0.36		
ILDIHFLSQADFLVCTFSSQVCRV [FUT8]	3.52 ± 0.23	3.09 ± 0.16		
LRFSGVNDTDFRVYLLGNPVVWWL [POMT2]	2.85 ± 0.43	2.96 ± 0.6		
RYIHSMSLVHMDIKPSNIFISRTS [WEE1]	1.9 ± 0.47	2.46 ± 0.31		
TLTKQDTMLKAMFSGRMEVLTDSE [KCTD10]	4.09 ± 0.26	4.32 ± 0.2		
TAIRQLTEPSGRVAKKTPTKRSTL [C2CD2L]	4.37 ± 0.15	4.44 ± 0.084		
EKRERALEEVERAILEMKWKVRAE [ZBED2]	3.77 ± 0.27	3.74 ± 0.53		
EDSIPLRGLSQNLFSNSDHQRDGT [SASS6]	4.94 ± 0.15	4.99 ± 0.2		
SGACGAFVHGLEDEMYEVRIAAVE [INTS4]	2.71 ± 0.46	2.73 ± 0.5		
DLDETLIHSHHDGVLRPTVRPGTP [CTDNEP1]	4.53 ± 0.086	4.67 ± 0.21		
PEQALDTPGDCPPGRRDEDAGEGI [TMEM175]	5.53 ± 0.23	5.43 ± 0.17		
AGAARVARWRRLRLQQLRRLRGLL [FBXO33]	3.13 ± 0.4	3.74 ± 0.43		
LFQRKLSWIKMTKLEYEEIALDLT [FAN1]	3.02 ± 0.39	2.45 ± 0.24		
EAEDQEEKEDAEKENIEKDEDDVD [SRPK2]	5.66 ± 0.32	5.79 ± 0.2		
LGYFIRSWRTLAILVNLQGTVVFL [SLC22A15]	2.71 ± 0.55	2.62 ± 0.75		
GSSGASDQDTLAPLPHPGAAPWPM [DVL3]	4.2 ± 0.15	4.3 ± 0.09		
FEYRGEQHKTCMLNATSKFMEFYQ [EDNRA]	2.08 ± 0.36	1.89 ± 0.32		
ALGSRGWEPFDWGRLLEALCREEP [FANCE]	2.61 ± 0.2	2.82 ± 0.33		
VQRHLYLQDVIMQVADVPEKPRVP [ZNF511]	2.8 ± 0.2	2.9 ± 0.29		
MPPVSYDVQLLHSWNNNDRSLNVF [SPSB1]	2.46 ± 0.15	2.26 ± 0.27		
EVTVQRNCCLTLCNFSIPEELEFQ [ZER1]	2.68 ± 0.26	2.59 ± 0.42		
VTDYFFTLVQREEPLRILSKYHRF [CDS2]	2.45 ± 0.21	2.42 ± 0.28		

Sequence	protein stability index [1]	protein stability index [2]	protein stability index (treatment: DMSO, c terminus: native)	protein stability index (treatment: MLN4924 1 uM, 8 h, c terminus: native)
FSLTHTHTHTPNHRGINCFFPEL [ANKRD44]			2.54 ± 0.56	2.76 ± 0.57
SSTSGGSGYGFRPSMVSGGYVANS [KRT71]	3.29 ± 0.31	3.46 ± 0.49		
SYLHAKKYLKPSGNMFPTIGDVHL [CARM1]	2.35 ± 0.39	2.64 ± 0.52		
DVRLLPRRLPLAFRDATSAPLRKL [DYRK1B]	3.17 ± 0.27	3.02 ± 0.15		
LNDISRKSEGLSGRVLRKLPFLAH [TRIP13]	2.11 ± 0.27	2.57 ± 0.55		
KIYFTDSSSKWQRRDYLLLVMEGT [APMAP]	2.68 ± 0.45	2.15 ± 0.37		
SPDLEWHAACLKCAECSQYLDETC [ISL2]	4.04 ± 0.19	4.03 ± 0.39		
FYKRRGASDLSSEEGWRLFKIDKE [SAT1]	3.32 ± 0.21	3.62 ± 0.49		
RPIGEFRSNADYQYQLLRCNVDLL [CNOT7]	2.5 ± 0.2	2.47 ± 0.16		
DSYSSSRSDLYSSGRDRVGRQERG [RBMX]	4.72 ± 0.059	4.84 ± 0.22		
DNAEAAFSDDEEDLNSKGKKREFR [INTS3]	5.51 ± 0.16	5.47 ± 0.2		
ELVVRFFACPSKTDFFKNIMNFID [KCNA1]	2.32 ± 0.58	2.33 ± 0.52		
QMASQSSASHYKLQVIKALKSSGL [M1AP]	2.82 ± 0.26	2.77 ± 0.21		
AAYFLLSTNDKTVKLWKVSERDKR [PPP2R2B]	2.51 ± 0.51	2.49 ± 0.26		
SPYLGQMINLRRLLLSHIHASSYI [PRAME]	2.7 ± 0.51	2.47 ± 0.48		
NDKFSFHEVKDNYIPVIKRALNSV [RHOBTB3]	2.19 ± 0.49	2.41 ± 0.24		
RTPPKSPGDPSKDRAAKRLSLESE [TPPP]	5.3 ± 0.14	4.99 ± 0.25		
CDPGTDPCPEDASTPRPPEASSSP [TLE6]	5.61 ± 0.26	5.58 ± 0.28		
MFGLVIPLGVLQAIAMYFLPPSPR [SLC2A12]	2.46 ± 0.64	2.53 ± 0.64		
CLLSSNSRSLLTGGYNLASVSVWD [TLE6]	2.4 ± 0.38	2.18 ± 0.18		
AQVFPESPESESDHEHEEADLELS [GNAS]	5.44 ± 0.27	5.46 ± 0.23		
LLKDKVRERIQILKTSEVTQHLPR [PTPN9]	2.7 ± 0.32	2.99 ± 0.075		
TEVPYATFTEHPMKYTSEKFLEIC [TPRG1]	2.64 ± 0.068	2.75 ± 0.12		

Sequence	protein stability index [1]	protein stability index [2]	protein stability index (treatment: DMSO, c terminus: native)	protein stability index (treatment: MLN4924 1 uM, 8 h, c terminus: native)
WDKHACPAYVGPEILSSRASYSGK [TRIB3]	3.53 ± 0.096	3.5 ± 0.24		
PREHHGRGGMLSASAETLPAGFRV [PPFIA4]	3.5 ± 0.44	3.95 ± 0.076		
PSPSEVITPWTPSPSEKNSSFTWS [SMTNL2]	4.22 ± 0.095	4 ± 0.062		
EIIELLILSGARVNAKDNMWLTPL [ANKRD44]	3.16 ± 0.2	3.3 ± 0.72		
YRFRMKCHLCVNYIEMQTDPANCD [YJU2B]	2.3 ± 0.31	2.26 ± 0.17		
SYYNSPGLHVQHMGTSHGITRPSP [CCDC6]	3.2 ± 0.29	3.24 ± 0.39		
KDGKNWNSNQATDIMETSGWKSMI [SPOPL]	3.38 ± 0.32	3.54 ± 0.4		
YLYTYDSQITDSEHNSSLVSQQTG [ZNF8]	3.73 ± 0.2	3.71 ± 0.11		
EITTLRQVLSAKERHLVEIKQKLG [TPD52L1]	2.97 ± 0.57	3.16 ± 0.12		
TYAMGHLIQRKKVHVFGDELSLVT [TNFSF13B]	2.32 ± 0.3	2.42 ± 0.21		
SAVADKLDNSRSILKRRYYRQHCT [CTDNEP1]	3.24 ± 0.33	3.7 ± 0.49		
QGSQASQAPPVPGPPPGAPHTPQT [NR2F2]	5.13 ± 0.27	5 ± 0.51		
EFQMFPKSRLSSVSVTYCSVSQDF [ETS2]	2.23 ± 0.25	2.15 ± 0.21		
TKFEVRLLRDPADASEAHESSSRG [CHGB]	4.61 ± 0.26	4.64 ± 0.12		
ISSVLAGGSCRAPSTYGGGLSVSS [KRT16]	2.38 ± 0.33	2.27 ± 0.27		
EPGTPSSSPDDKLLTSPRAINNLV [KLHL14]	4.87 ± 0.16	4.91 ± 0.34		
VDRLPGLQGALDLLAVLCVDGSGR [ZSWIM9]	2.01 ± 0.34	2.27 ± 0.24		
PLDMFSEEIKFYELGEEAMEKFRE [KCNA1]	4.71 ± 0.31	4.85 ± 0.12		
PRGARCSNGFPERDPPRPGPSRPA [GCH1]	4.71 ± 0.064	4.47 ± 0.38		
VGSVHVDSGASAITRESHTHRDRP [CSNK1G1]	4.85 ± 0.25	4.66 ± 0.32		
